According to the supplement of paper PMC7877785:
± gives the uncertainty stated by the source.

Experiment: self-splicing fitness, log relative to wild type (ln ratio); higher = more splicing; Tetrahymena group I intron in knt gene, E. coli kanamycin selection, DiMSum; sequences stand for … in CUCUCU…GGAGGGAAAAGUUAUCAGGCAUGCACCUGGUAGCUAGUCUUUAAACCAAUAGAUUGCAUCGGUUUAAAAGGCAAGACCGUCAAAUUGCGGGAAAGGGGUCAACAGCCGUUCAGUACCAAGUCUCAGGGGAAACUUUGAGAUGGCCUUGCAAAGGGUAUGGUAAUAAGCUGACGGACAUGGUCCUAACCACGCAGCCAAGUCCUAAGUCAACAGAUCUUCUGUUGAUAUGGAUGCAGUUCACAGACUAAAUGUCGGUCGGGGAAGAUGUAUUCUUCUCAUAAGAUAUAGUCGGACCUCUCCUUAAUGGGAGCUAGCGGAUGAAGUGAUGCAACACUGGAGCCGCUGGGAACUAAUUUGUAUGCGAAAGUAUAUUGAUUAGUUUUGGAGUACUCGUGGUCG
In short: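 DiMSum derived fitness as the error-weighted combination of fold changes across replicates, kanamycin versus no kanamycin, normalised to wild type. E. coli BL21(DE3) held the library, which randomised all eight P1ex-region intron nucleotides within the knt kanamycin-resistance gene on pET-22b(+). Six replicate transformations grew overnight at 37°C or 30°C on LB agar with or without 25 μg/mL kanamycin, also containing 100 μg/mL carbenicillin, 50 μM IPTG and 0.2% rhamnose, and pooled colonies were amplicon-sequenced on an Illumina HiSeq 2500.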

Sequence | self-splicing fitness (ln) (30 °C) | self-splicing fitness (ln) (37 °C)
ACCCAGCAAUAUUACGUGAU | -0.402 ± 0.034 | 0.181 ± 0.048
CACGAGCAAUAUUACGUAAC | -2.41 ± 0.27 | 
CUGAAGCAAUAUUACGCGUG | -0.382 ± 0.041 | 0.0264 ± 0.063
GGCCAGCAAUAUUACGCCCA | -2.11 ± 0.35 | -0.809 ± 0.25
UUUAAGCAAUAUUACGCAAA | -1.59 ± 0.38 | -0.938 ± 0.28
CAGUAGCAAUAUUACGAAUG | -1.36 ± 0.1 | -0.492 ± 0.11
UGGCAGCAAUAUUACGAAGU | -3.69 ± 0.37 | -2.62 ± 0.23
AAGAAGCAAUAUUACGACGU | -0.168 ± 0.068 | 0.298 ± 0.1
ACGCAGCAAUAUUACGCAUC | -2.1 ± 0.11 | -1.47 ± 0.16
GCGAAGCAAUAUUACGAAAG | -4.38 ± 0.4 | -1.14 ± 0.18
UUGGAGCAAUAUUACGUAAG | -2.23 ± 0.26 | -0.995 ± 0.24
AAGAAGCAAUAUUACGUCAC | -3.46 ± 0.21 | -3 ± 0.28
ACAAAGCAAUAUUACGAAAU | -3.02 ± 0.13 | -1.42 ± 0.12
CAAGAGCAAUAUUACGUGUC | -4.19 ± 0.2 | -3.11 ± 0.2
CCUGAGCAAUAUUACGUCAU | -3.5 ± 0.15 | -2.68 ± 0.18
CGAAAGCAAUAUUACGAUCU | -0.599 ± 0.076 | 0.313 ± 0.11
ACCAAGCAAUAUUACGGCAG | -3.19 ± 0.16 | -1.9 ± 0.17
GGUAAGCAAUAUUACGAUAA | -1.43 ± 0.092 | -0.994 ± 0.13
UGCCAGCAAUAUUACGGCUA | 0.121 ± 0.12 | 0.121 ± 0.12
UGCUAGCAAUAUUACGCUGA | -1.25 ± 0.12 | -1.18 ± 0.13
CUUAAGCAAUAUUACGGUGA | -3.72 ± 0.24 | -2.17 ± 0.19

Sequence | self-splicing fitness (ln) (30 °C) | self-splicing fitness (ln) (37 °C)
AAAGAGCAAUAUUACGUUCG | -1.54 ± 0.11 | -0.974 ± 0.15
UCCUAGCAAUAUUACGGAAG | -3.41 ± 0.28 | -1.23 ± 0.43
GACGAGCAAUAUUACGACUC | -1.36 ± 0.15 | 0.797 ± 0.18
AUAGAGCAAUAUUACGCGUU | -1.47 ± 0.12 | -0.672 ± 0.13
AUUUAGCAAUAUUACGCCUA | -1.24 ± 0.2 | 0.0334 ± 0.19
GAACAGCAAUAUUACGUAAG | -1.06 ± 0.083 | -0.059 ± 0.093
GUGCAGCAAUAUUACGUGUA | -2.77 ± 0.16 | -1.31 ± 0.11
CGUCAGCAAUAUUACGCCUG | -0.469 ± 0.099 | 0.582 ± 0.12
GUGCAGCAAUAUUACGAAGU | -1.74 ± 0.14 | -0.554 ± 0.17
UUAAAGCAAUAUUACGUAAU | -2.43 ± 0.12 | -1.91 ± 0.14
CUUAAGCAAUAUUACGCUGA | -3.94 ± 0.39 | -1.17 ± 0.25
UCAGAGCAAUAUUACGUGUA | -2.57 ± 0.23 | -2.18 ± 0.19
GACAAGCAAUAUUACGUAAA | -1.75 ± 0.069 | -1.09 ± 0.091
UACUAGCAAUAUUACGCCAU | -2.57 ± 0.26 | -3.06 ± 0.33
GACUAGCAAUAUUACGAAAC | -1.3 ± 0.12 | -0.114 ± 0.13
GCGGAGCAAUAUUACGGCCU |  | 0.0586 ± 0.34
CCUAAGCAAUAUUACGAGUA | -2.5 ± 0.16 | -1.98 ± 0.18
AGAGAGCAAUAUUACGCUGG | -3.07 ± 0.27 | -2.4 ± 0.32
GCCUAGCAAUAUUACGAAGG | -3.05 ± 0.17 | -2.65 ± 0.3
AUGUAGCAAUAUUACGCAAC | -2.69 ± 0.45 | -0.382 ± 0.27
AGAUAGCAAUAUUACGAUGA | -1.5 ± 0.13 | -0.349 ± 0.097
